Measurements published in patent US11707511B2, “Vaccine compositions and methods of using the same” (The Board of Supervisors of Louisiana State University and …, priority 2017, dated 2023).
Entries after “also recorded” stand apart in the source; their conditions may differ.

What was measured:
[1] = test system: medically important Candida spp; test: DC-based immunization with universal peptides, coverage of medically important Candida spp; type: in vivo; details: in words
From the text: Novel universal peptides as described herein can be excellent peptide vaccines against C. ablicans infection.

[2] = Induction of specific anti-peptide antibody responses in immunized mice; type: in vivo; details: BALB/c mice; peptide-pulsed DC; data not shown
From the text: (§1) To perform rapid throughput evaluation of peptide vaccine candidates, immunizations were done by use of the similar antigen-pulsed DC based vaccine strategy with modification by totally removing CFA from vaccine formula. Fba peptide was used as positive control.
The double chimeric peptide conjugate vaccines have been tested for their abilities to induce specific anti-peptide antibodies and protective immunity against the disease caused by C. albicans. […] The enhancement in vaccine efficacy was evidenced by both increased survival and reduced or non-detectable fungal burden (colony forming units, CFUs) in kidneys of animals.

C. albicans = test: Active immunization with peptide-pulsed dendritic cells, disseminated candidiasis caused by C. albicans in mice; type: in vivo, Candida albicans
Method: (§2) Active Immunizations with peptide pulsed dendritic cells. […] It allows us to perform rapid throughput evaluation of candidate short peptides. When protective double universal peptide conjugate(s) become identified by this study, immunization approaches suitable for human use will be applied in further studies. All active vaccinations were conducted as previously described (6,7,9). DCs were pulsed in vitro with universal peptide as described before with minor modification by totally removing CFA for last booster (6). Briefly, DCs in culture were pulsed with the peptide antigen (1 μM) on day 6. On day 7, PGE2 (10^-7M) was added along with LPS (2 μg/ml, Sigma) for 24 h to induce DC maturation. On day 9, antigen-pulsed DCs were washed extensively and […] in 200 μl DPBS were given by intraperitoneal (i.p.) route as the priming dose to mice. The mice were boosted i.p. at day 14 and day 28 with fresh antigen-pulsed DCs without adjuvant.
Table 2 lists universal peptide vaccines that induced protection against disseminated candidiasis caused by C. albicans in mice. The universal peptide vaccines listed in Table 1 are expressed at high homology by all analyzed medically important Candida species in addition to C. albicans (see details at Table 2). By dendritic cell (DC) based immunization approach as described herein, each of the universal peptide vaccines was able to protect mice against disseminated candidiasis caused by C. albicans, with the survival rate 80-100% up to 80-120 days post challenge.
as §1

[3] = test system: C. tropicalis (ATCC 20336); test: Peptide-vaccinated mice challenged with lethal dose of C. tropicalis; type: in vivo
Method: as §2
Peptide-vaccinated mice were challenged with lethal dose of live C. tropicalis cells (ATCC 20336; i.v. challenge dose: 1×10^6/mouse).

C. albicans 3153A = test: Passive transfer of mAbs or mAb cocktails i.p. before lethal i.v. challenge, mouse model of human disseminated candidiasis; type: in vivo, Candida albicans; details: Table 14; for Protection of adsorbed mAb: mAb removed by absorption with Candida cells before transfer; for Protection / Protection (grade word): single mAb, C. albicans
Method: Passive transfer of MAbs by intraperitoneal (i.p.) route. The preventive effect of peptide-specific mAbs listed in Table 3 and Table 4 in naïve mice was examined by passive transfer experiments. […] For testing, mice received 0.5 ml of each mAb or 1 ml of two mAbs in combination (0.5 ml of each) intraperitoneally. […] The negative control materials tested in mice were single mAb or DPBS. Control mice received 0.5 ml of the DPBS diluents or single mAb treatment. For each condition, 6- to 8-week-old female BALB/c mice (NCI) were given 0.5 ml of test mAb, or 1 ml two mAb cocktails or control materials intraperitoneally, followed 4 h later by 0.1 ml intravenously of defined lethal dose of yeast cells per milliliter of DPBS. Mice were divided into groups with five mice each and three independent experiments were carried out. In some experiments, mice were given the same dose of mAbs or control materials on every other day post-challenge for two weeks, as compared to the protective efficacy of mAb in combinations. All mice were sacrificed on day 50. For animal groups that were challenged non-albicans candida species, determined optimal challenge doses were applied for each candida strain.
The hybridoma clones that produce the universal peptide specific mAbs listed above were generated from mice vaccinated with peptide-pulsed dendritic cell (DC) preparation as described previously (6). The isotype of mAb was determined with a Mouse Monoclonal Antibody Isotyping Kit (Pierce, USA). […] In detail, BALB/c mice were given an i.p dose of each mAb four hours before hematogenous challenged with a lethal dose of C. albicans3153A cells. […] Importantly, passive protection was prevented by removal of the mAbs by absorption with Candida cells before transfer, which provided strong additional evidence for the protection being due to the mAb.
The three cell wall proteins were selected because of expression during human candidiasis and cell wall association, and included fructose-bisphosphate aldolase (Fba); methyltetrahydropteroyltriglutamate-homocysteine methyltransferase (Met6); hyphal wall protein-1 (Hwp1). The hybridoma clones listed at Table 5, which produce the peptide specific mAbs, were generated from mice vaccinated with peptide-pulsed dendritic cell (DC) preparation as described previously (6). The isotype of mAb was determined with a Mouse Monoclonal Antibody Isotyping Kit (Pierce, USA). […] Importantly, passive protection was prevented by removal of the mAbs by absorption with Candida cells before transfer, which provided strong additional evidence for the protection being due to the mAb).
The preventive effect of each universal peptide-specific mAb was examined by passive transfer experiments. […] For testing, 5 mice of each tested group received 0.5 ml of each mAb intraperitoneally. The negative control materials tested in mice were mAbs absorbed with C. albicans yeast cells (3153A) and DPBS. Control mice received 0.5 ml of the DPBS diluents or adsorbed mAb solution. For each condition, 6- to 8-week-old female BALB/c mice (NCI) were given 0.5 ml of test mAb, or control materials intraperitoneally, followed 4 h later by 0.1 ml intravenously of a suspension containing lethal dose of Candida cells per milliliter of DPBS. Mice were divided into groups with five mice each and three independent experiments were carried out. We have developed neutropenic murine models of disseminated infection by C. glabrata, C. tropicalis and C. parapsilosis. To induce neutropenia, naïve mice received a 200 mg/kg dose of cyclophosphamide (CY) by i.p. on day −3. Prolonged neutropenia were maintained for 30-50 days by giving each animal a 150 mg/kg dose of CY by i.p. every 10 days after infection.

C. auris AR-0386 = test: Passive transfer of mAbs or two mAbs in combination in A/J mouse model of invasive C. auris infection; type: in vivo, Candida auris
Method: A. Complement protein C5-defecient A/J mice were treated with one of the five mAb or with DPBS as a vehicle control. The following day, mice were challenged with 1×10^8 C. auris cells/100 ul DPBS dose per mouse. […] B. Fungal burdens in the kidneys (top), heard (center), and brain (bottom).
Identified protective mAbs were obtained by use of standard hybridoma technique and purified by use of protein A/G. A/J mice were given an i.p. dose of either single mAb or two mAbs in combination 24 hours before hematogensous challenge with a lethal dose (2×108) of C. auris AR-0386 live cells. Mice received either 9G2F5 alone or 6H1G8 alone or 9F2G5 and 3H7E3 in combination had 40% survival rate respectively, with prolonged survival as compared to control animals that received DPBS buffer control.
Evaluation and validation of a panel of peptide-specific monoclonal antibodies (mAbs) as a passive immunization strategy protect against invasive C. auris infection in established A/J mouse model of human disease.
The monoclonal antibodies used in this experiment were: • 6H1G8 (IgG2b), α-Hwp1 (Hyphal wall protein) • 3E2G2 (IgG2b), α-Fba (Fructose bisphosphate aldolase) • 10E7E2 (IgG1), α-GPV-P3 (General peptide vaccine 3 from Phosphoglycerate kinase) • 9F2G5 (IgG2a), α-Pgk1 (Phosphoglycerate kinase) • 3H7E3 (IgG1), α-Met6 (Methyltetrahydropteroyltriglutamate)

**Q.** With “FWVNPDCGLKTR (CFWVNPDCGLKTR; (1)..(1) May or may not be present) [GPV-M1]” as the molecule, how does the “coverage against medically important Candida spp” value (“coverage” below) [1] read?
**A.** able to provide broad coverage

**Q.** For AILGGSKVSDKI (CAILGGSKVSDKI) [GPV-P1], which “coverage” value [1] is on record?
**A.** able to provide broad coverage

**Q.** Which specific antibody responses [2] does the source give for SSSTVVAAL [Fba4] here?
**A.** able to induce specific antibody responses

**Q.** Which results are given for FAIPAINVTSSSTVVAALE [Fba3]?
**A.** protection against disseminated candidiasis caused by C. albicans (C. albicans; FIG. 2, antigen-pulsed DC vaccine without CFA): good protective responses; CFUs in kidneys as compared to controls (C. albicans; FIG. 2 B and D): reduced or non-detectable CFUs; survival ([3]; FIG. 3A, i.v. challenge 1×10^6/mouse, up to 80 days): 80%; live fungal cells (CFU) in kidneys as compared to controls ([3]; FIG. 3B, p<0.001): significantly reduced live fungal cells; specific antibody responses [2]: able to induce specific antibody responses

**Q.** With “TTTIGSFPQTKDIR (CTTTIGSFPQTKDIR; (1)..(1) May or may not be present) [GPV-M2]” as the molecule, how does the “coverage” value [1] read?
**A.** able to provide broad coverage

**Q.** Which specific antibody responses [2] does the source give for PAINVTSSSTVVAALEAA [FbaU2] here?
**A.** able to induce specific antibody responses

**Q.** Which “coverage” value [1] does the source give for “IVIIGGGDTATVAKK (CIVIIGGGDTATVAKK; (1)..(1) May or may not be present) [GPV-P3]” here?
**A.** able to provide broad coverage

B1: 6H1G8: IgG2b mAb of hybridoma 6H1G8, specific for Hwp1 peptide (antibody)
heavy: EVQLQQSGPELVKPGASVKISCKASGYSITGYYMHWVKQSHVKSLEWIGRINPYTGATSYTQNFKDKASLTVDKSSSTAYMELLSLKSEDSAVYYCAKGGGRSSYWYFDVWGAGTAVTVSSAKTTPPSVYPLAPGCGDTTGSSVTLGCLVKGYFPESVTVTWNSGSLSSSVHTFPALLQSGLYTMSSSVTVPSSTWPSQTVTCSVAHPASSTTVDKKLEPSGPISTINPCPPCKECHKCPAPNLEGGPSVFIFPPNIKDVLMISLTPKVTCVVVDVSEDDPDVQISWFVNNVEVHTAQTQTHREDYNSTIRVVSTLPIQHQDWMSGKEFKCKVNNKDLPSPIERTISKIKGLVRAPQVYILPPPAEQLSRKDVSLTCLVVGFNPGDISVEWTSNGHTEENYKDTAPVLDSDGSYFIYSKLNMKTSKWEKTDSFSCNVRHEGLKNYYLKKTISRSPGK
light: DIQMTQTTSSLSASLGDRVTISCSASQAISNYLNWYQQKPDGTIKLLIYYTSSLHSGVPSRFSGSGSGTDYSLTISNLEPEDIATYYCQQYSKLPWTFGGGTKLEIKRADAAPTVSIFPPSSEQLTSGGASVVCFLNNFYPKDINVKWKIDGSERQNGVLNSWTDQDSKDSTYSMSSTLTLTKDEYERHNSYTCEATHKTSTSPIVKSFNRNEC
**Q.** Which “Protection of adsorbed mAb” value (C. albicans 3153A) does the source give for B1 here?
**A.** None

**Q.** What about the Protection (C. albicans 3153A) of the same molecule?
**A.** (70-80%)

**Q.** And the “Protection (grade word)” value (C. albicans 3153A)?
**A.** High

**Q.** And the “fungal burdens in targeted organs” value (C. auris AR-0386; A/J mouse model, in words)?
**A.** lowest fungal burdens in all organs; also recorded: able to almost clear fungal burden

**Q.** And the “protection against C. auris invasive infection” value (C. auris AR-0386; A/J mouse model, in words)?
**A.** protect against C. auris invasive infection; also recorded: best protection

**Q.** And the survival (C. auris AR-0386; FIG. 15A, A/J mice, 1×10^8 C. auris cells, experiment terminated 40 days post challenge)?
**A.** 50%

**Q.** And the “fungal burden in the kidneys” value (C. auris AR-0386; FIG. 15B, one treated mouse)?
**A.** Non-detectible levels of fungal burden

**Q.** What about the “fungal burden in the heart and brain” value (C. auris AR-0386; FIG. 15B, several mice) of the same molecule?
**A.** non-detectible levels of fungal burden

**Q.** And the survival rate (C. auris AR-0386; FIG. 16, A/J mice, mAb(s) i.p. 24 hours before lethal dose (2×108) of C. auris AR-0386)?
**A.** 40%

B2: 2B10C1: IgG1 mAb of hybridoma 2B10C1, specific for Met6 peptide; VH SEQ ID NO: 60, VL SEQ ID NO: 62 (antibody, V domains shown)
VH: MGWSYIILFLLATATRVHSQVQLQQPGAEVVRPGASVKVSCKASGYTVSSYWMSWVKQRPEQGLEWIGRIDPYDSETHYNQKFKDKAILTVDKSSSTAYMQLSSLTSEDSAVYYCARTAASFDYWGQGTTLTVSS
VL: MKLPVRLLVLMFWIPASSSDVVMTQTPLSLPVSLGDQASISCRSSQSLVHSNGNSYLHWYLQKPGQSPKLLIYKVSNRFSGVPDRFSGSGSGTDFTLNISRVEAEDLGVYFCSQSTHVPFTFGSGTKLEIK
**Q.** Which “Protection of adsorbed mAb” value (C. albicans 3153A) does the source give for B2 here?
**A.** None

**Q.** What about the Protection (C. albicans 3153A) of the same molecule?
**A.** (80-100%)

**Q.** What about the “Protection (grade word)” value (C. albicans 3153A) of the same molecule?
**A.** High

**Q.** What about the “Protection against C. auris” value (C. auris AR-0386; Table 19, A/J strain mice) of the same molecule?
**A.** 60-90%

**Q.** And the “Protection against C. auris (grade word)” value (C. auris AR-0386; Table 19, A/J strain mice)?
**A.** High
